Starred links: 1 amine or outer side, 2 acyl side, 3 side chain; linkers in the order of their positions; H or OH if unused. Positions of bridges follow the written chain, without caps; N, C: chain ends. Non-standard residues stand in square brackets, D forms with d. dLys(N3) = [N-]=[N+]=NCCCC[C@@H](N)C(=O)O; NMeW = CN[C@@H](Cc1c[nH]c2ccccc12)C(=O)O; Lys(N3) = [N-]=[N+]=NCCCC[C@H](N)C(=O)O; mXylylene = c1cc(C[*:1])cc(C[*:2])c1; NMeH = CN[C@@H](Cc1c[nH]cn1)C(=O)O; NMeR = CN[C@@H](CCCNC(=N)N)C(=O)O; NMeF = CN[C@@H](Cc1ccccc1)C(=O)O; dNMeF = CN[C@H](Cc1ccccc1)C(=O)O; R5 = C=CCCC[C@@](C)(N)C(=O)O; S5 = C=CCCC[C@](C)(N)C(=O)O; Nle = CCCC[C@H](N)C(=O)O; Pra = C#CC[C@H](N)C(=O)O
How the values were obtained:
Test in all cases: cell-based or functional assay
[1] = target: human recombinant MC1R (CHO-K1 stable cell line, GenScript) (human, UniProt Q01726 1-317)
Sequence of human recombinant MC1R (CHO-K1 stable cell line, GenScript) (Q01726 whole entry): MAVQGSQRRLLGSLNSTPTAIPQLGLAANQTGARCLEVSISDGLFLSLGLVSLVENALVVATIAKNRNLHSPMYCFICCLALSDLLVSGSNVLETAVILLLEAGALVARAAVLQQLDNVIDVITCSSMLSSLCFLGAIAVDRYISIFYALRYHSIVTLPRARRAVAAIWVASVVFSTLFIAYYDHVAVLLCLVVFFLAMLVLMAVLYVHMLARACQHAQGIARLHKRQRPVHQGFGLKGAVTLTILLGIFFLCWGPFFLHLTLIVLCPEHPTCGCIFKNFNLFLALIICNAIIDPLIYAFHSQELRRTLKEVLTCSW

[2] = target: human recombinant MC4R (CHO-K1/Gα15 stable cell line, GenScript) (human, UniProt P32245 1-332)
Sequence of human recombinant MC4R (CHO-K1/Gα15 stable cell line, GenScript) (P32245 whole entry): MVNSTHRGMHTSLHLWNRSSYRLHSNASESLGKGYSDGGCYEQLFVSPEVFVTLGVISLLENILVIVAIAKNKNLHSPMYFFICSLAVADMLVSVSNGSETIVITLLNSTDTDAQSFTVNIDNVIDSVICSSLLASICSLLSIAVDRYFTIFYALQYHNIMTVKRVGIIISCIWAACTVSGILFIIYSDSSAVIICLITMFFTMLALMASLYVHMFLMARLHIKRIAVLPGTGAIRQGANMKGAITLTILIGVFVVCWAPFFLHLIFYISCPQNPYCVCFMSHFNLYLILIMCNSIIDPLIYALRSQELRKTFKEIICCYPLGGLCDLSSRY

[3] = target: human recombinant MC5R (CHO-K1/Ga15 stable cell line, GenScript) (human, UniProt P33032 1-325)
Sequence of human recombinant MC5R (CHO-K1/Ga15 stable cell line, GenScript) (P33032 whole entry): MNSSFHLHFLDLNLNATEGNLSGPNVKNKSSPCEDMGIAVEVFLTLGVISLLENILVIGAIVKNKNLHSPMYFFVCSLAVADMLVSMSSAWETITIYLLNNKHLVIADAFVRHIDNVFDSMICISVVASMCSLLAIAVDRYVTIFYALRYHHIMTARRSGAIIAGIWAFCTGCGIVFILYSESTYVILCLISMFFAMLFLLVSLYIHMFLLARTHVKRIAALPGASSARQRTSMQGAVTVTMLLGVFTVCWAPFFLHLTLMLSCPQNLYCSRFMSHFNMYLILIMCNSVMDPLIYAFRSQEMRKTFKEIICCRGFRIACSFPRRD

[4] = target: human recombinant MC3R (CHO-K1/Gα15 stable cell line, GenScript) (human, UniProt P41968 1-323)
Sequence of human recombinant MC3R (CHO-K1/Gα15 stable cell line, GenScript) (P41968 whole entry): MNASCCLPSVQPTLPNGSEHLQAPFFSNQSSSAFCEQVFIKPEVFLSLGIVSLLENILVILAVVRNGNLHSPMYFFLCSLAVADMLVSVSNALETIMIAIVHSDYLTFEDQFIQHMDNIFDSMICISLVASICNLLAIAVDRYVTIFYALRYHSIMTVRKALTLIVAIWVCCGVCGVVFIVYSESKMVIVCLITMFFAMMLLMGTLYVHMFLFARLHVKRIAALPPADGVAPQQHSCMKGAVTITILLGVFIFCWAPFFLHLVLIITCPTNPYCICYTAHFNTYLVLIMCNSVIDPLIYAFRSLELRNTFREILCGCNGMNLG

Binder | MC1R IC50 [1] | MC4R IC50 [2] | MC5R IC50 [3] | MC3R IC50 [4]
Ac-[Nle][dLys(N3)]H[dF]RW[Pra]K-NH2 (triazole 2-7; not fully specified; printed as Ac-Nle-[DLys(N3)-His-DPhe-Arg-Trp-Pra]-Lys-NH2) [KR-069] | 16.5 nM | 30.9 nM | 161 nM | –
Ac-[Nle][S5]H[dF]RW[S5]-NH2 (staple 2-7) [KR-039] | 1.95 nM | 35.4 nM | 739 nM | 426 nM
Ac-[Nle]EHFRWGKC-NH2 (not fully specified (bridges); printed as -Cyclo(-Ac-Nle-Glu-His-Phe-Arg-Trp-Gly-Lys-Cys)-NH2; also: cyclo(...) including Ac, ring type and places not given here) [KR-036] | 0.88 nM | 40.6 nM | 289 nM | 328 nM
Ac-SYSMEH[dNMeF]RWGKPV-NH2 [KR-025] | 17.8 nM | – | 1080 nM | > 50000 nM
Ac-MEHFRWGKPV-NH2 [KR-003] | 0.13 nM | 40.5 nM | 315 nM | 289 nM
Ac-[Nle][Lys(N3)]H[dNMeF]RW[Pra]-NH2 (triazole 2-7) [KR-044] | > 50 nM | 238 nM | 2300 nM | > 50000 nM
Ac-EHFRWGC-NH2 (bridge N-7; not fully specified (bridges); printed as Cyclo(-Ac-Glu-His-Phe-Arg-Trp-Gly-Cys)-NH2) [KR-012] | 20 nM | 16 nM | – | 5570 nM
{CH2CO}-EHFRWC-NH2 (thioether N-6; SMILES N=C(N)NCCC[C@@H]1NC(=O)[C@H](Cc2ccccc2)NC(=O)[C@H](Cc2c[nH]cn2)NC(=O)[C@H](CCC(=O)O)NC(=O)CSC[C@@H](C(N)=O)NC(=O)[C@H](Cc2c[nH]c3ccccc23)NC1=O) [KR-011] | 128 nM | 104 nM | – | > 50000 nM
Ac-[Nle]CH[dF]RCW-NH2 (linker 2-6 via mXylylene) [KR-032] | – | 194 nM | 489 nM | 1330 nM
XXHFRWX (Ac-Nle-[Dab-His-DPhe-Arg-Trp-Dab] Linker: succinic acid-NH2) [KR-041] | 0.04 nM | 13.8 nM | 44.3 nM | 24.1 nM
Ac-[Nle][Lys(N3)]H[dF]RW[Pra]K-NH2 (triazole 2-7) [KR-037] | 0.024 nM | 35 nM | 106 nM | 62.9 nM
Ac-SYSMEH[NMeF]RWGKPV-NH2 [KR-022] | > 200 nM | – | 698 nM | > 50000 nM
Ac-YSMEHFRWGKPV-NH2 [KR-001] | 0.061 nM | 87.6 nM | 84.4 nM | 199 nM
Ac-[Nle]EHFRWGK-NH2 (SMILES CCCC[C@H](NC(C)=O)C(=O)N[C@@H](CCC(=O)O)C(=O)N[C@@H](Cc1c[nH]cn1)C(=O)N[C@@H](Cc1ccccc1)C(=O)N[C@@H](CCCNC(=N)N)C(=O)N[C@@H](Cc1c[nH]c2ccccc12)C(=O)NCC(=O)N[C@@H](CCCCN)C(N)=O) [KR-035] | 0.36 nM | 59.6 nM | 404 nM | 276 nM
Ac-[Nle][R5]H[dF]RW[S5]-NH2 (staple 2-7; SMILES CCCC[C@H](NC(C)=O)C(=O)N[C@]1(C)CCCC=CCCC[C@@](C)(C(N)=O)NC(=O)[C@H](Cc2c[nH]c3ccccc23)NC(=O)[C@H](CCCNC(=N)N)NC(=O)[C@@H](Cc2ccccc2)NC(=O)[C@H](Cc2c[nH]cn2)NC1=O) [KR-038] | > 50 nM | 74 nM | 5090 nM | 20000 nM
Ac-SYSMEHF[NMeR]WGKPV-NH2 [KR-023] | 21.2 nM | – | 4540 nM | 13400 nM
Ac-EHFRWGKPV-NH2 [KR-004] | 1.15 nM | 34.2 nM | > 10000 nM | 937 nM
Ac-[Nle][Lys(N3)][NMeH][dF]RW[Pra]-NH2 (triazole 2-7) [KR-043] | 0.15 nM | 31.4 nM | 86 nM | 61.6 nM
Ac-SYSMEHFR[NMeW]GKPV-NH2 [KR-024] | 0.88 nM | – | – | 515 nM
Ac-[Nle]CH[dF]RWC-NH2 (linker 2-7 via mXylylene) [KR-040] | 0.124 nM | – | 257 nM | –
Ac-SYSME[NMeH]FRWGKPV-NH2 [KR-021] | – | – | 225 nM | 445 nM
XXHFRWX (Ac-Nle-[Dab(N3)-His-DPhe-Arg-Trp-Dab(N3)] linkr: 3,3′-Oxybis[1-propyne]-NH2) [KR-042] | 0.16 nM | 109 nM | 237 nM | 225 nM

From patent US20260152527A1 (SIGHTSTREAM BIOTHERAPEUTICS, published 2026)
